{"source": "patent US20110152199A1", "about": "(ONCOTHERAPY SCIENCE, published 2011)", "molecular_target": "T1, HLA-A2 (HLA-A*0201) on cells (human, UniProt P04439 25-302 at identity 0.94))", "T1 MHC heavy": "not shown", "experiment": "cell-based or functional assay"}
{"binder": "KLATAQFKI", "note": "[CDCA1 351-359 (No. 4) peptide]", "values": [{"measurement": "IFN-γ production by healthy donor 1-derived CTLs against T2 cells pulsed with the peptide at various concentrations (E/T ratio 5)", "value": "≥ 0.2", "unit": "µg/mL"}]}
